Test results as given in patent publication US20240294622A1.

Columns and labels:
[1] = target: HGREM1-His (ACRO) (human) (UniProt O60565); experiment: Fortebio: Gremlin-his loaded (2ug/ml), antibody at 50 nM; unit from the axis of the sensorgram
[2] = target: HGREM1-His (ACRO) (human) (UniProt O60565); experiment: blocking ELISA, Human Gremlin-1 binding to BMP7; column Percentage
[3] = target: HGREM1-His (ACRO) (human) (UniProt O60565); experiment: ELISA, binding to hGremlin-his
[4] = target: HGREM1-His (ACRO) (human) (UniProt O60565); experiment: Fortebio: Gremlin-his loaded (2ug/ml) on the sensor, antibody at 100, 50 and 25 nM
[5] = target: HGREM1-His (ACRO) (human) (UniProt O60565); experiment: ELISA: antibody coated, Gremlin-his titrated, anti-his-HRP; the concentration is that of Gremlin-his
[6] = target: HGREM1-His (ACRO) (human) (UniProt O60565); experiment: Fortebio: Gremlin-his loaded (2ug/ml), antibody at 100 nM; unit from the axis of the sensorgram
[7] = target: HGREM1-His (ACRO) (human) (UniProt O60565); experiment: Fortebio: Gremlin-his loaded (2ug/ml), antibody at 25 nM; unit from the axis of the sensorgram
[8] = target: HGREM1-His (ACRO) (human) (UniProt O60565); experiment: blocking ELISA, Human Gremlin-1 binding to BMP2; column OD450
[9] = target: HGREM1-His (ACRO) (human) (UniProt O60565); experiment: blocking ELISA, Human Gremlin-1 binding to BMP4; column OD450
[10] = target: HGREM1-His (ACRO) (human) (UniProt O60565); experiment: blocking ELISA, Human Gremlin-1 binding to BMP2; column Percentage
[11] = target: HGREM1-His (ACRO) (human) (UniProt O60565); experiment: Fortebio: Gremlin-his loaded (2ug/ml) on the sensor, antibody at 100, 50 and 25 nM; kdis(1/s)
[12] = target: HGREM1-His (ACRO) (human) (UniProt O60565); experiment: blocking ELISA, Human Gremlin-1 binding to BMP4; column Percentage
[13] = target: HGREM1-His (ACRO) (human) (UniProt O60565); experiment: competition ELISA, Gremlin-his binding to coated BMP7
[14] = target: hGREM1 (source and construct not stated) (human) (UniProt O60565); experiment: ELISA on hGREM1
Sequence of hGREM1 (source and construct not stated) (human) (O60565 25-184 limits assumed): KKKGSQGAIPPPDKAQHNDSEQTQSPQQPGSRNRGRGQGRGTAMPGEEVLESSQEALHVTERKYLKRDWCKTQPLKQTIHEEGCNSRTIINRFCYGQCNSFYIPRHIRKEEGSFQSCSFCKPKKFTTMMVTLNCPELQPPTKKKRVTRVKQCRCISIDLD

[15] = target: HGREM1-His (ACRO) (human) (UniProt O60565); experiment: blocking ELISA, Human Gremlin-1 binding to BMP7; column OD450

Sequence of HGREM1-His (ACRO) (human) (O60565 25-184): as the sequence (O60565 25-184 limits assumed) above

- Response [1]: 0.513 nm
- IC50 [2]: 0.536 µg/mL
- EC50 [3]: 0.0575 µg/mL
- Kd [4]: 2.58 nM
- kon [4]: 338000 M⁻¹ s⁻¹
- EC50 (read off the curve) [5]: 0.01 µg/mL
- Response [6]: 0.649 nm
- Response [7]: 0.313 nm
- IC50 [8]: 0.797 µg/mL
- IC50 [9]: 0.638 µg/mL
- IC50 [10]: 0.797 µg/mL
- koff [11]: 0.00087 s⁻¹
- IC50 [12]: 0.638 µg/mL
- maximal blocking percentage [13]: < 30%
- EC50 [14]: 0.115 µg/mL
- IC50 [15]: 0.536 µg/mL
B1: benchmark antibody 6245P (antibody, from another filing, V domains shown)
VH: EVQLVESGGGLVQPGGSLRLSCAASGFTFNSFWMSWVRQAPGKGLEWVANIKQDGSEKYYVDSVKGRFTISRDNAKNSVYLQMNSLRAEDTAVYYCARDLVTSFDYWGQGTLVTVSS
VL: DIQMTQSPSSLSASVGDRVTITCQASQDINNYLNWYQQKPGKAPKLLIYDASYLETGVPSGFSGSGSGTDFTFTISSLQPEDIATYYCQQYDSLPYTFGQGTKLEIK
